Measured values: publication PMC4731217, “Mutations in Mtr4 Structural Domains Reveal Their Important Role in Regulating tRNAiMet Turnover in Saccharomyces cerevisiae and Mtr4p Enzymatic Activities In Vitro”

Experiments:
Mtr4p-K700N = biological target: T1, Mtr4p-K700N (Saccharomyces cerevisiae, UniProt P47047 1-1073, K700N); experiment: EMSA; no ATP or Mg2+ listed; 1 mM EDTA; EMSA: 0.5 nM RNA, 10 mM Tris pH 7.5, 1 mM EDTA, 100 mM KCl, 0.1 mM DTT, 5% glycerol, 1% NP40, on ice 30 min; 5% native PAGE at 4 C; settings: protein: recombinant; tags: His (His60 Ni purification); label: 5' 32P on R4 (top strand); 16 bp duplex, 3' overhang 6 nt on R1
T1 sequence: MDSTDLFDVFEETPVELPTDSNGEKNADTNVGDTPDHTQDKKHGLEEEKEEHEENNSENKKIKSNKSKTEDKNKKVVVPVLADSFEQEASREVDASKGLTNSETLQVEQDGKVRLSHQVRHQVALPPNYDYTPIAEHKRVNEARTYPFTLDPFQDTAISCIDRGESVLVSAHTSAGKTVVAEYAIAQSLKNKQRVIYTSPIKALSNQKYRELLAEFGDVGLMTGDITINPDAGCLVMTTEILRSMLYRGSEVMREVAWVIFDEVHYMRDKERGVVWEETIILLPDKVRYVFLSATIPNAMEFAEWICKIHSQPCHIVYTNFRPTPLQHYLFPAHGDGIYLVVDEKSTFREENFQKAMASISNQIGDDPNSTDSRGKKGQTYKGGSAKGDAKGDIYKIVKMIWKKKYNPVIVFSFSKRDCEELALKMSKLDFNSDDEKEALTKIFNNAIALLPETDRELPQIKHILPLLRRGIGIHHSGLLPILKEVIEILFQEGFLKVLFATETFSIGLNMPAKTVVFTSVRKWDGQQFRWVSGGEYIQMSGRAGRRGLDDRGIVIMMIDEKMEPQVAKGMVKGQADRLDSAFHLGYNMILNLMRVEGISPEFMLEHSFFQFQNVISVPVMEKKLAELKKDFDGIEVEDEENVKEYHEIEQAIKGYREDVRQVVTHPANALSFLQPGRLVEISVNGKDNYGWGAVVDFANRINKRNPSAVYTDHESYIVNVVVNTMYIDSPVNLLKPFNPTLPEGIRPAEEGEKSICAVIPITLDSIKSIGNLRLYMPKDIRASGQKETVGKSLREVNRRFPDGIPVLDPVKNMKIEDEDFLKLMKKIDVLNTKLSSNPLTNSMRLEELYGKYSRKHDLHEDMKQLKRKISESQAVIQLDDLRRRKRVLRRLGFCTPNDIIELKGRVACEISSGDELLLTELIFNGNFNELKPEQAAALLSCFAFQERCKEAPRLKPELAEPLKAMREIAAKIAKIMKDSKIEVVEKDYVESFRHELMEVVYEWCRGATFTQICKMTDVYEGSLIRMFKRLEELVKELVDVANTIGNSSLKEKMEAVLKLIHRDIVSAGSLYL

Mtr4p-P731S = biological target: T2, Mtr4p-P731S (Saccharomyces cerevisiae, UniProt P47047 1-1073, P731S); experiment: as above; settings: protein: recombinant; tags: His (His60 Ni purification); label: 5' 32P on R4 (top strand); 16 bp duplex, 3' overhang 6 nt on R1
T2 sequence: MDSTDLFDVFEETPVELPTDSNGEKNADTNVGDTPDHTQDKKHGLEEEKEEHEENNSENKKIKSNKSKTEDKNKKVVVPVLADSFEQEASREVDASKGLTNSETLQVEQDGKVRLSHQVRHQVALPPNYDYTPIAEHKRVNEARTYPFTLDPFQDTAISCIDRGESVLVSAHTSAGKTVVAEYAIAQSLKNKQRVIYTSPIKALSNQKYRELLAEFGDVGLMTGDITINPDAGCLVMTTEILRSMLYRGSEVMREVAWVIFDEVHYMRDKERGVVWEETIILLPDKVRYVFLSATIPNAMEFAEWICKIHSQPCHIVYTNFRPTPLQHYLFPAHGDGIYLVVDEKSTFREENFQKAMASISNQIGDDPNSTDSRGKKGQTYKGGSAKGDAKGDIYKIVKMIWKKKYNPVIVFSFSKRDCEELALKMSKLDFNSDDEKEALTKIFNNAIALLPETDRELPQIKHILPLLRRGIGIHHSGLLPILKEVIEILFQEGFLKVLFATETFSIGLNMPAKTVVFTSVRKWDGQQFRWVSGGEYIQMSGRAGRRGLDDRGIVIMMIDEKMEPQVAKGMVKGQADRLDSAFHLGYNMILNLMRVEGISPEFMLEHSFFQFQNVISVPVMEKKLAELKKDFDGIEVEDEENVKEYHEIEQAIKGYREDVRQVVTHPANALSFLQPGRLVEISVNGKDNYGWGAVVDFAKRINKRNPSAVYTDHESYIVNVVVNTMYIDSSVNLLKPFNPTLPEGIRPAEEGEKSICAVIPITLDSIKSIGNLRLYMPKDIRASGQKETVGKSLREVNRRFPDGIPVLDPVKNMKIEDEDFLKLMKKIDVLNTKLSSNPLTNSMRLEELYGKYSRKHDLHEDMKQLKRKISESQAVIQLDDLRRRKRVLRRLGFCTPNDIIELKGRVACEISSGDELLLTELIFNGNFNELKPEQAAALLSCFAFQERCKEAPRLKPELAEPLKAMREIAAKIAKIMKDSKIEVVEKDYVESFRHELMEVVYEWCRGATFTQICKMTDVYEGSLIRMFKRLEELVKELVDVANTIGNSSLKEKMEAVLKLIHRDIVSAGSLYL

B1: R1-4 RNA duplex (R4 top / R1 bottom) (dsRNA)
RNA 1: AGCACCGUAAAGACGC
RNA 2: GCGUCUUUACGGUGCUAGCUUA
Q: With B1 as the binder, how does the binding signal (Mtr4p-K700N) read?
A: < 50 % of wild-type complex

Q: What about the binding signal (Mtr4p-P731S) of the same binder?
A: ~50 % of wild-type complex
